Substitutions are numbered along the chain they refer to.
B1: BIIB-9-452 (antibody, V domains shown)
VH: QVQLVQSGAEVKKPGASVKVSCKASGYTFTSYYMHWVRQAPGQGLEWMGIINPSGGSTSYAQKFQGRVTMTRDTSTSTVYMELSSLRSEDTAVYYCARDGRLSYTWDRWGQGTLVTVSS
VL: EIVMTQSPATLSVSPGERATLSCRASQSVSSNLAWYQQKPGQAPRLLIYGASTRATGIPARFSGSGSGTEFTLTISSLQSEDFAVYYCQQANNFPFTFGGGTKVEIK
B2: BIIB-9-1282 (antibody, V domains shown)
VH: QVQLVQSGAEVKKPGASVKVSCKASGYTFTSYYMVWVRQAPGQGLEWMGIINPSGGSTSYAQKFQGRVTMTRDTSTSTVYMELSSLRSEDTAVYYCARVPTYRYSYLAFDIWGQGTMVTVSS
VL: B1 VL with A91H, N93H, F94L, F96I
B3: BIIB-9-566 (antibody, V domains shown)
VH: B2 VH
VL: B1 VL with N32S, A91H, N92D, F94W, F96P
B4: BIIB-9-616 (antibody, V domains shown)
VH: QVQLVQSGAEVKKPGASVKVSCKASGYTFTSYYMHWVRQAPGQGLEWMGIINPSGGSTSYAQKFQGRVTMTRDTSTSTVYMELSSLRSEDTAVYYCARGGSKYFFDLWGRGTLVTVSS
VL: B1 VL with N32S, N92D
B5: BIIB-9-469 (antibody, V domains shown)
VH: QVQLVQSGAEVKKPGASVKVSCKASGYTFTSYYMHWVRQAPGQGLEWMGIINPSGGSTSYAQKFQGRVTMTRDTSTSTVYMELSSLRSEDTAVYYCARDLGYGRSYDFDLWGRGTLVTVSS
VL: B1 VL with Y49F, A91S
B6: BIIB-9-408 (antibody, V domains shown)
VH: QVQLVQSGAEVKKPGASVKVSCKASGYTFTSYYMHWVRQAPGQGLEWMGIINPSGGSTTYAQKFQGRVTMTRDTSTSTVYMELSSLRSEDTAVYYCARDPGAYDDWSGYDDYGMDVWGQGTTVTVSS
VL: EIVLTQSPATLSLSPGERATLSCRASQSVSSYLAWYQQKPGQAPRLLIYDASNRATGIPARFSGSGSGTDFTLTISSLEPEDFAVYYCQQAFVWPPITFGGGTKVEIK
B7: BIIB-9-1287 (antibody, V domains shown)
VH: QLQLQESGPGLVKPSETLSLTCTVSGGSISSSDYYWGWIRQPPGKGLEWIGSIYYSGSTYYNPSLKSRVTISVDTSKNQFSLKLSSVTAADTAVYYCARSPRHKVRGPNWFDPWGQGTLVTVSS
VL: EIVLTQSPGTLSLSPGERATLSCRASQSVSSSYLAWYQQKPGQAPRLLIYGASSRATGIPDRFSGSGSGTDFTLTISRLEPEDFAVYYCQQYHLHPTFGGGTKVEIK
B8: BIIB-9-884 (antibody, V domains shown)
VH: B7 VH
VL: EIVLTQSPGTLSLSPGERATLSCRASQSVSSSYLAWYQQKPGQAPRLLIYGASSRATGIPDRFSGSGSGTDFTLTISRLEPEDFAVYYCQQYHLLPPTFGGGTKVEIK
B9: BIIB-9-567 (antibody, V domains shown)
VH: QVQLVQSGAEVKKPGASVKVSCKASGYTFTSYYMHWVRQAPGQGLEWMGIINPSGGSTSYAQKFQGRVTMTRDTSTSTVYMELSSLRSEDTAVYYCARLGRRYYAYDGMDVWGQGTTVTVSS
VL: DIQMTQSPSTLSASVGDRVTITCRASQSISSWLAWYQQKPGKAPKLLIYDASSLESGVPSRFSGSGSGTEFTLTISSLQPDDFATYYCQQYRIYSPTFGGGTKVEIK
B10: BIIB-9-882 (antibody, V domains shown)
VH: B9 VH with L99G, G100P, R101T, R102D, Y103S, Y104S, A105G, D107L, G108D, Q114K
VL: B1 VL with Y49F, A91H, N92D, F96P
B11: BIIB-9-612 (antibody, V domains shown)
VH: QVQLVQSGAEVKKPGASVKVSCKASGYTFTSYYMHWVRQAPGQGLEWMGIINPSGGSTSYAQKFQGRVTMTRDTSTSTVYMELSSLRSEDTAVYYCARDAGYHWYGMDVWGQGTTVTVSS
VL: EIVLTQSPATLSLSPGERATLSCRASQSVSRYLAWYQQKPGQAPRLLIYDASNRATGIPARFSGSGSGTDFTLTISSLEPEDFAVYYCQQSSLFPLTFGGGTKVEIK
B12: BIIB-9-1277 (antibody, V domains shown)
VH: QVQLVQSGAEVKKPGASVKVSCKASGYTFTSYYMHWVRQAPGQGLEWMGIINPSGGSTSYAQKFQGRVTMTRDTSTSTVYMELSSLRSEDTAVYYCARGGTGYYYGSGSRDGYHYYYGMDVWGQGTTVTVSS
VL: B11 VL with L4M, L13V, R31S, F83L, S92A, L93N, F94W, L96P
B13: BIIB-9-419 (antibody, V domains shown)
VH: QVQLVQSGAEVKKPGASVKVSCKASGYTFTSYYMHWVRQAPGQGLEWMGIINPSGGSTSYAQKFQGRVTMTRDTSTSTVYMELSSLRSEDTAVYYCAREPTFYASYFDLWGRGTLVTVS
VL: B11 VL with L4M, R31S, A51S, S91V, L93T, F94H, L96Y
B14: BIIB-9-1280 (antibody, V domains shown)
VH: B11 VH with H35V, D99G, A100P, G101W, H103S, W104Y, G106Y, Q112K
VL: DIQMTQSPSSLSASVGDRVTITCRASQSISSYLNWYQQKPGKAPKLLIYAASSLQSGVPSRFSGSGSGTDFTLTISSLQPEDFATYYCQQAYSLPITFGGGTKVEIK
B15: BIIB-9-626 (antibody, V domains shown)
VH: B11 VH with I50V, A100L, G101Q, H103S, W104M, Y105T, G106Y, M107F, V109Y, T115L
VL: DIQMTQSPSTLSASVGDRVTITCRASQSISSWLAWYQQKPGKAPKLLIYKASSLESGVPSRFSGSGSGTEFTLTISSLQPDDFATYYCQQDGSYPPLTFGGGTKVEIK
B16: BIIB-9-579 (antibody, V domains shown)
VH: B11 VH with H35V, D99G, A100P, G101W, H103S, W104Y, G106Y, Q112K
VL: DIQMTQSPSSLSASVGDRVTITCRASQSISSYLNWYQQKPGKAPKLLIYGASSLQSGVPSRFSGSGSGTDFTLTISSLQPEDFATYYCQQAFSFPFTFGGGTKVEIK
B17: BIIB-9-1273 (antibody, V domains shown)
VH: B4 VH with G99D, G100T, S101G, K102G, F104A, L107I, R110Q
VL: B11 VL with S7Y, R31S, S92A, L93N, L96F
B18: BIIB-9-565 (antibody, V domains shown)
VH: QLQLQESGPGLVKPSETLSLTCTVSGGSISSSSYYWGWIRQPPGKGLEWIGSIYYSGSTYYNPSLKSRVTISVDTSKNQFSLKLSSVTAADTAVYYCARAGMYSSYANWFDPWGQGTLVTVSS
VL: B11 VL with R31S, S91D, L93N, F94L, L96F
B19: BIIB-9-1266 (antibody, V domains shown)
VH: B11 VH with A100H, Y102W, H103A, W104I
VL: B11 VL with L4M, R31S, A51S, S91R, S92L, L93N, L96F
B20: BIIB-9-627 (antibody, V domains shown)
VH: QVQLVQSGAEVKKPGASVKVSCKASGYTFTSYYMHWVRQAPGQGLEWMGIINPSGGSTSYAQKFQGRVTMTRDTSTSTVYMELSSLRSEDTAVYYCARADYDYWSGYGGLGMDVWGQGTTVTVSS
VL: not shown
B21: BIIB-9-1265 (antibody, V domains shown)
VH: QLQLQESGPGLVKPSETLSLTCTVSGGSISSSSYYWGWIRQPPGKGLEWIGSIYYSGSTYYNPSLKSRVTISVDTSKNQFSLKLSSVTAADTAVYYCARDGRHYYELFDYWGQGTLVTVSS
VL: B16 VL with L11V, S28G, Y32W, N34A, G50A, A91G, F92N, F96I
B22: BIIB-9-1286 (antibody, V domains shown)
VH: B2 VH
VL: B16 VL with L11V, S28G, Y32W, N34A, G50A, A84V, F92S, F96P
B23: BIIB-9-889 (antibody, V domains shown)
VH: B21 VH with G101V, R102G, H103W, Y105T, L107Y, Y110L, Q113R
VL: B1 VL with N92F, F94W, F96P
B24: BIIB-9-625 (antibody, V domains shown)
VH: B21 VH with Y35A, G101R, R102G, H103W, Y105T, L107V, F108L, Y110I, L116M
VL: B16 VL with G50A, A91S, F92D, S93T, F94D, F96P
B25: BIIB-9-446 (antibody, V domains shown)
VH: QVQLVQSGAEVKKPGSSVKVSCKASGGTFSSYAISWVRQAPGQGLEWMGGIIPIFGTASYAQKFQGRVTITADESTSTAYMELSSLRSEDTAVYYCARGLEVGYYGYFDYWGQGTLVTVSS
VL: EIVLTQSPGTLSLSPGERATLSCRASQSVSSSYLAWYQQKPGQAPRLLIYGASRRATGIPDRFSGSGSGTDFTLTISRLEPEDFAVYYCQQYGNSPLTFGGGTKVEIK

What follows are binders tested against free FIXa (activated Factor IX) (UniProt P00740 47-191; P00740 227-461) (assay: BLI).

Kd [nM]	Binder
11.7	B1
43.9	B2
21.4	B3
16.8	B4
13.3	B5
1.36	B6
0.669	B7
1.79	B8
20.6	B9
2.31	B10
14	B11
58.8	B12
21.1	B13
51.7	B14
166	B15
11.3	B16
20.9	B17
15.8	B18
42.6	B19
233	B20
59.8	B21
31.8	B22
40.7	B23
11.3	B24
17.5	B25

Reference: US20230192896A1 (published 2023)
